Experimental data reported in US20170101454A1 (Novo Nordisk, published 2017).
Starred links: 1 amine or outer side, 2 acyl side, 3 side chain; linkers in the order of their positions; H or OH if unused. Non-standard residues stand in square brackets, D forms with d. Groups on a side chain read outwards from the residue. No end group written: not given here. *: point of attachment. C18 diacid = O=C(O)CCCCCCCCCCCCCCCCC(=O)*; γGlu = O=C(O)[C@H](CCC(=O)[*:2])N[*:1]; Ac4c = NC1(C(=O)O)CCC1; AEEA = NCCOCCOCC(=O)O; Aib = CC(C)(N)C(=O)O

B1: N^ε28-[(4S)-4-carboxy-4-[[(4S)-4-carboxy-4-[[2-[2-[2-[[2-[2-[2-[[(4S)-4-carboxy-4-[[(4S)-4-carboxy-4-(17-carboxyheptadecanoylamino)butanoyl]amino]butanoyl]amino … (peptide)
peptide: H[Ac4c]QGTFTSDLSRYLESRRAREFVQWLIK([γGlu-γGlu-AEEA-AEEA-γGlu-γGlu-C18 diacid])T-NH2
modifications: N-terminus assumed
SMILES: CC[C@H](C)[C@H](NC(=O)[C@H](CC(C)C)NC(=O)[C@H](Cc1c[nH]c2ccccc12)NC(=O)[C@H](CCC(N)=O)NC(=O)[C@@H](NC(=O)[C@H](Cc1ccccc1)NC(=O)[C@H](CCC(=O)O)NC(=O)[C@H](CCCNC(=N)N)NC(=O)[C@H](C)NC(=O)[C@H](CCCNC(=N)N)NC(=O)[C@H](CCCNC(=N)N)NC(=O)[C@H](CO)NC(=O)[C@H](CCC(=O)O)NC(=O)[C@H](CC(C)C)NC(=O)[C@H](Cc1ccc(O)cc1)NC(=O)[C@H](CCCNC(=N)N)NC(=O)[C@H](CO)NC(=O)[C@H](CC(C)C)NC(=O)[C@H](CC(=O)O)NC(=O)[C@H](CO)NC(=O)[C@@H](NC(=O)[C@H](Cc1ccccc1)NC(=O)[C@@H](NC(=O)CNC(=O)[C@H](CCC(N)=O)NC(=O)C1(NC(=O)[C@@H](N)Cc2c[nH]cn2)CCC1)[C@@H](C)O)[C@@H](C)O)C(C)C)C(=O)N[C@@H](CCCCNC(=O)CC[C@H](NC(=O)CC[C@H](NC(=O)COCCOCCNC(=O)COCCOCCNC(=O)CC[C@H](NC(=O)CC[C@H](NC(=O)CCCCCCCCCCCCCCCCC(=O)O)C(=O)O)C(=O)O)C(=O)O)C(=O)O)C(=O)N[C@H](C(N)=O)[C@@H](C)O
notes: also called Chem. 17; Chem 17
B2: N^ε28-[(4S)-4-carboxy-4-[[(4S)-4-carboxy-4-[[2-[2-[2-[[2-[2-[2-[[(4S)-4-carboxy-4-[[(4S)-4-carboxy-4-(17-carboxyheptadecanoylamino)butanoyl]amino]butanoyl]amino … (peptide)
peptide: H[Aib]QGTFTSDLSKYLESRRAREFVQWLIK([γGlu-γGlu-AEEA-AEEA-γGlu-γGlu-C18 diacid])T-NH2
modifications: N-terminus assumed
SMILES: CC[C@H](C)[C@H](NC(=O)[C@H](CC(C)C)NC(=O)[C@H](Cc1c[nH]c2ccccc12)NC(=O)[C@H](CCC(N)=O)NC(=O)[C@@H](NC(=O)[C@H](Cc1ccccc1)NC(=O)[C@H](CCC(=O)O)NC(=O)[C@H](CCCNC(=N)N)NC(=O)[C@H](C)NC(=O)[C@H](CCCNC(=N)N)NC(=O)[C@H](CCCNC(=N)N)NC(=O)[C@H](CO)NC(=O)[C@H](CCC(=O)O)NC(=O)[C@H](CC(C)C)NC(=O)[C@H](Cc1ccc(O)cc1)NC(=O)[C@H](CCCCN)NC(=O)[C@H](CO)NC(=O)[C@H](CC(C)C)NC(=O)[C@H](CC(=O)O)NC(=O)[C@H](CO)NC(=O)[C@@H](NC(=O)[C@H](Cc1ccccc1)NC(=O)[C@@H](NC(=O)CNC(=O)[C@H](CCC(N)=O)NC(=O)C(C)(C)NC(=O)[C@@H](N)Cc1c[nH]cn1)[C@@H](C)O)[C@@H](C)O)C(C)C)C(=O)N[C@@H](CCCCNC(=O)CC[C@H](NC(=O)CC[C@H](NC(=O)COCCOCCNC(=O)COCCOCCNC(=O)CC[C@H](NC(=O)CC[C@H](NC(=O)CCCCCCCCCCCCCCCCC(=O)O)C(=O)O)C(=O)O)C(=O)O)C(=O)O)C(=O)N[C@H](C(N)=O)[C@@H](C)O
notes: also called Chem. 25; Chem 25

Key:
human GLP-1 receptor [1] = molecular target: T1, human GLP-1 receptor (human, UniProt P43220 24-463); assay: displacement of [125I]-GLP-1-(7-36)NH2 from BHK membranes with human GLP-1R, SPA, no serum albumin
T1 construct: whole, on cells; reporter assay used whole cells

human glucagon receptor [2] = molecular target: T2, human glucagon receptor (human, UniProt P47871 26-477); assay: displacement of [125I]-glucagon from BHK membranes with human glucagon receptor, SPA, no serum albumin
T2 construct: whole, on cells; reporter assay used whole cells; also called hGCGR
T2 sequence (P47871 26-477): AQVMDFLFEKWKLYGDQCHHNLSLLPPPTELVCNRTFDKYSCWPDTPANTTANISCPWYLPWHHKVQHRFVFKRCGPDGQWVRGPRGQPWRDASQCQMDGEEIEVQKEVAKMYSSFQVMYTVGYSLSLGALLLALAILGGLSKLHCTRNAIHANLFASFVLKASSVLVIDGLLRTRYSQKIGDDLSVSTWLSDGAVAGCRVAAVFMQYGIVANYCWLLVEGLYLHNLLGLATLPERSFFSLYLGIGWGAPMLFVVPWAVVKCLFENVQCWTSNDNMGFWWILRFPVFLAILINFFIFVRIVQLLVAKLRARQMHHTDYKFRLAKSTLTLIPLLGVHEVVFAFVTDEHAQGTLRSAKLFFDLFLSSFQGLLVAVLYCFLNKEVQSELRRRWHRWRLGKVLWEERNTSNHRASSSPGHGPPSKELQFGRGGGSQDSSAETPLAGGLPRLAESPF

human glucagon receptor [3] = molecular target: T2, human glucagon receptor; assay: cell-based or functional assay
human GLP-1 receptor [4] = molecular target: T1, human GLP-1 receptor; assay: cell-based or functional assay

Row | Binder | IC50 (human GLP-1 receptor [1]) [nM] | IC50 (human glucagon receptor [2]) [nM] | GlucagonR EC50 (pM), [Assay (I)(b)], CRE luciferase reporter, BHK cells (human glucagon receptor [3]) [pM] | GLP-1R EC50 (pM) [Assay (I)(a)], CRE luciferase reporter, BHK cells (human GLP-1 receptor [4]) [pM]
1 | B1 | 0.1 | 4.3 | 45 | 4
2 | B2 | 0.1 | 11.2 | 52 | 2
